Data on two molecules can be found in patent US20050130227A1 (MUNIN, published 2005).

Assay [1] concerns the target T1, nuclear membrane protein nucleoporin p62 (mouse, UniProt Q63850 2-526).
T1 construct: Negative control protein; detected with anti-Nucleoporin p62 monoclonal clone 53; also called nuclear envelope protein Nucleoporin p62
T1 sequence (looked up): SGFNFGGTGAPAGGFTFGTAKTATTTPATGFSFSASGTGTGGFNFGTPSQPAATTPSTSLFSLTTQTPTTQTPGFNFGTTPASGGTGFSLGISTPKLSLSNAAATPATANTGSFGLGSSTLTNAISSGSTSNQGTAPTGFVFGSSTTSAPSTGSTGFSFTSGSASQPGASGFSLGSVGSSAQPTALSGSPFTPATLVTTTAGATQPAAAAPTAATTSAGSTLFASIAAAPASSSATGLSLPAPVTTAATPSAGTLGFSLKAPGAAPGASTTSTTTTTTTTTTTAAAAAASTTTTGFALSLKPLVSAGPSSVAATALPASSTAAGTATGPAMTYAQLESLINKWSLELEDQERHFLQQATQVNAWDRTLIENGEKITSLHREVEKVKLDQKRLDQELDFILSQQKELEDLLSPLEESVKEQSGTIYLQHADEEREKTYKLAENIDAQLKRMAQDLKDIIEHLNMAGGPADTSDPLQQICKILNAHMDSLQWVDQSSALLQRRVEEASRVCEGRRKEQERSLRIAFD
As to the kind of experiment: GST pull-down from mouse C1-1D nuclear extract, Western blot. The source says: (A) Mouse C1-1D cell nuclear extract proteins were allowed to bind to bead immobilized GST-mGPBP fusion proteins. […] The antibodies used to probe these blots were raised against TBP, The C-terminal domain of RNA polymerase II (RNA pol II CTD), Transcription Fraction IIB (TFIIB), Transcription Fraction IIF RAP30 subunit (TFIIF RAP30), P300/CAAT Binding Protein (CBP), and the negative control antibodies against the nuclear envelope protein Nucleoporin p62. The estimated molecular weight of proteins in each band (in Kd) based on electrophoretic mobility in comparison to protein size markers were shown on the right by arrows. (B) In vivo binding of mGPBP was determined by immuno-coprecipitation analyses of cell lysates. […] The antibodies raised against TBP, RNA pol II CTD, TFIIB, CBP, or HA-tag were used as probes as indicated in each blot. The estimated molecular weight of proteins in each band (in Kd) based on electrophoretic mobility in comparison to protein size markers are shown on by arrows. The migration location of the HA-mGPBP fusion protein is also shown on the right of the panel with an arrow.
Nuclear extracts were prepared as previously described (Berger and Kimmel, 1987) with minor modifications. Mouse C1-1D Cells were collected and washed with 10 volumes of PBS once. […]

The target in assay [2] is T1, nuclear membrane protein nucleoporin p62. The assay is described as follows: co-immunoprecipitation with anti-HA antibodies from transfected C1-1D cells, Western blot. From the text:
To examine whether the in vitro complexing of GPBP with transcription factors also occurs in vivo, we performed a co-immunoprecipitation experiment using an HA-tagged mGPBP expression construct in mouse C1-1D cells. The hemagglutinin antigen (HA)-tagged (Field, 1988[2]) mGPBP eukaryotic expression construct pCDNAHA-mGPBP was generated by inserting the (HA) tag coding sequence upstream of, and in frame with, the mGPBP cDNA's ORF in pCDNA-mGPBP. Anti-HA antibodies were used to immunoprecipitate nuclear extract proteins derived from the transfected cells. As a control, nuclear extract from cells transfected with the HA expression vector containing no GPBP-encoding sequences underwent a similar immunoprecipitation procedure.
In general terms: In western blotting, separated proteins are transferred to a membrane and probed.

B1: recombinant GST-mGPBP fusion protein (other)
chain: MAQHDFAPAWLNFPTPPSSTKSSLNFEKHSENFSWTENRYDVSRRRHNSSDGFDSGIGRPNGGNFGRKEKNGWRTHGRNGTENINHRGGYHGGNSRSRSSIFHSGKSQGLHENSIPDNETGRKEDKRERRQFEAEDFPSLNPEYEREPNQNKSLAAGVWGLHAQTHTYPTKKISQAPLLDYPPNPKSRTPRMLVIKKGNTKDLQLSGFPVAGNLQSQPVKNGTSPSVYKGLVPKPAVPPTKPTQWKSQTKENKVGTSFSHESTYGVGNFNTFKSTAKNISPSTNSVKECNRSNSSSPVDKLNQQPRLTKLTRMRSDKKSEFLKALKRDRVEEEHEDESHAGSEKDDDSFNLHNSNTTHQERDINRNFDENEIPQENGNASIISQQIIRSSTFPQTDVLSSSLEAEHRLLKEMGWQEDSENDETCAPLTEDEMREFQVISEQLQKNGLRKNGILKNGLICDFKFGPWKNSTFKPTIENDDTETSSSDTSDDDDV
notes: also called immobilized recombinant mGPBP; bead immobilized GST-mGPBP fusion proteins; not shown: N-terminal glutathione S-transferase (GST) carrier and the vector-encoded linker of pGEX-4T-1 between GST and the insert
On to B1, for which the binding result in assay [1] is recorded as “no binding”.

B2: HA-tagged mGPBP (other)
chain: MAQHDFAPAWLNFPTPPSSTKSSLNFEKHSENFSWTENRYDVSRRRHNSSDGFDSGIGRPNGGNFGRKEKNGWRTHGRNGTENINHRGGYHGGNSRSRSSIFHSGKSQGLHENSIPDNETGRKEDKRERRQFEAEDFPSLNPEYEREPNQNKSLAAGVWGLHAQTHTYPTKKISQAPLLDYPPNPKSRTPRMLVIKKGNTKDLQLSGFPVAGNLQSQPVKNGTSPSVYKGLVPKPAVPPTKPTQWKSQTKENKVGTSFSHESTYGVGNFNTFKSTAKNISPSTNSVKECNRSNSSSPVDKLNQQPRLTKLTRMRSDKKSEFLKALKRDRVEEEHEDESHAGSEKDDDSFNLHNSNTTHQERDINRNFDENEIPQENGNASIISQQIIRSSTFPQTDVLSSSLEAEHRLLKEMGWQEDSENDETCAPLTEDEMREFQVISEQLQKNGLRKNGILKNGLICDFKFGPWKNSTFKPTIENDDTETSSSDTSDDDDV
notes: Expressed from pCDNAHA-mGPBP in transfected mouse C1-1D cells; whole mGPBP ORF; also called HA-mGPBP; HA-tag fused to mGPBP; not shown: hemagglutinin antigen (HA) tag upstream of and in frame with the ORF
For the molecule B2, the binding result in assay [2] is recorded as “no binding”.
